Laboratory results from US20190248888A1, “METHODS OF LOWERING BLOOD GLUCOSE LEVELS” (Regeneron Pharmaceuticals, Inc., priority 2016, published 2019).

Test system: livers of mice
Assay: RNAseq gene expression in liver of GCGR antibody treated mice
Type: in vivo, mouse
Settings: 21 days
Procedure: All procedures were conducted in compliance with protocols approved by the Institutional Animal Care and Use Committee of Regeneron Pharmaceuticals. The in vitro and in vivo characteristics of REGN1193 (H4H1327P), a potent monoclonal GCGR blocking antibody has been previously described (See U.S. Pat. No. 8,545,847). This antibody was used as the exemplary glucagon signaling pathway antagonist in all studies in this report (See the HVCR/LCVR amino acid sequence pair of SEQ ID NOs: 86/88 in the present application. See also the corresponding heavy chain complementarity determining regions (HCDRs 1-2-3 of SEQ ID NOs: 72-74-76) and the corresponding light chain complementarity determining regions (LCDRs 1-2-3 of SEQ ID NOs: 80-82-84). The GCGR antibody and isotype control antibody were diluted with sterile PBS.
Total RNA was purified from all samples using MagMAX™-96 for Microarrays Total RNA Isolation Kit (Ambion by Life Technologies) according to manufacturer's specifications. Genomic DNA was removed using MagMAX™Turbo™DNase Buffer and TURBO DNase from the MagMAX kit listed above (Ambion by Life Technologies). mRNA was purified from total RNA using Dynabeads® mRNA Purification Kit (Invitrogen). Strand-specific RNA-seq libraries were prepared using ScriptSeq™ mRNA-Seq Library Preparation Kit (Epicentre). Twelve-cycle PCR was performed to amplify libraries. Sequencing was performed on Illumina HiSeq®2000 (Illumina) by multiplexed single-read run with 33 cycles.
Raw sequence data (BCL files) were converted to FASTQ format via Illumina Casava 1.8.2. Reads were decoded based on their barcodes and read quality was evaluated with FastQC (http://www.bioinformatics.babraham.ac.uk/projects/fastqc/). Reads were mapped to the mouse transcriptome (NCBI GRCh37) using CLC Genomics Workbench Version 7.0 (CLCbio) or TopHat2 (Version 2.0.10) allowing two mismatches. Reads mapped to the exons of a gene were summed at the gene level. To identify differentially expressed genes, the statistical significance (p-value) of the differential expressions was assessed with DESeq package (version 1.6 or 2.0).
A key role of glucagon is to promote the uptake and metabolism of amino acids in the liver to provide gluconeogenic precursors. To further explore this pathway, a recently described fully human GCGR-blocking antibody (Okamato et al, 2015, Endocrinol. 156:2781-2794; See also, U.S. Pat. No. 8,545,847) derived using VelocImmune technology (Macdonald et al., 2014, PNAS 111:5147-5152; Murphy et al., 2014, PNAS 111:5153-5158) was used in the experiments provided herein. […] As shown previously (Mu et al., 2012, PLOS ONE 7:349572; Okamoto et al., 2015, Endocrinol. 156:2781-2794; Solloway et al., 2015, Cell Reports 12:495-510), and confirmed later in this study, these findings provide a mechanism for the elevated circulating amino acid levels that are observed in mice and monkeys with impaired GCGR signaling.

[1] = liver of mice, 15 mg/kg α-GCGR vs control antibody

B1: α-GCGR: potent monoclonal GCGR blocking antibody, HCVR/LCVR SEQ ID NOs: 86/88 (antibody, V domains shown)
VH: EVQLVESGGGLVQPGGSLRLSCAASGFTFSNYLMNWVRQAPGKGLEWLANIQEDGIEKYYVDSVKGRFTISRDNAKNSLYLQMNSLRAEDTAVYYCAREPSHYDILTGYDYYYGMDVWGQGTTVTVS
VL: DIQMTQSPSSLSASVGDRVTITCRASQGIRNDLGWYQQKPGKAPKRLIYAASSLQSGVPSRFSGSGSGTEFILTVSSLQPEDFATYYCLQYNSNPFTFGPGTKVDIK
[1]
  Aass Fold change: −1.85
  Abat Fold change: −1.64
  Acmsd Fold change: −2.70
  Agxt Fold change: −2.17
  Aldh4a1 Fold change: −1.64
  Aldoa Fold change: −1.15
  Arg1 Fold change: −1.56
  Asl Fold change: −1.92
  Ass1 Fold change: −3.23
  Bhmt Fold change: −2.00
  Cbs Fold change: −1.85
  Cps1 Fold change: −1.96
  Cth Fold change: −3.12
  Ddc Fold change: −2.08
  Eno1 Fold change: −1.20
  Fbp1 Fold change: −1.67
  G6pc Fold change: −1.39
  Gcat Fold change: −1.67
  Gldc Fold change: −1.72
  Gnmt Fold change: −2.56
  Got1 Fold change: −8.33
  Gpi1 Fold change: 1.03
  Gpt Fold change: −1.72
  Hgd Fold change: −1.75
  Hpd Fold change: −1.92
  Ivd Fold change: −1.56
  Lap3 Fold change: −1.56
  Mat1a Fold change: −2.04
  Mpst Fold change: −1.61
  Nags Fold change: −1.67
  Oat Fold change: −6.67
  Otc Fold change: −1.12
  Pah Fold change: −1.75
  Pck1 Fold change: −1.82
  Pgam1 Fold change: −1.20
  Pgk1 Fold change: −1.16
  Prodh Fold change: −1.67
  Sardh Fold change: −1.75
  Sds Fold change: −3.23
  Slc1a2 Fold change: −1.25
  Slc3a1 Fold change: −1.72
  Slc3a2 Fold change: −1.08
  Slc6a9 Fold change: 1.45
  Slc7a2 Fold change: −2.27
  Slc15a3 Fold change: −1.12
  Slc15a4 Fold change: −1.15
  Slc16a10 Fold change: −1.28
  Slc17a8 Fold change: 2.32
  Slc25a12 Fold change: 1.27
  Slc25a13 Fold change: −1.27
  Slc25a15 Fold change: −1.92
  Slc25a22 Fold change: −1.56
  Slc36a1 Fold change: −1.41
  Slc36a4 Fold change: −1.18
  Slc38a2 Fold change: −1.08
  Slc38a3 Fold change: −1.75
  Slc38a4 Fold change: −1.56
  Slc38a6 Fold change: −1.09
  Slc38a7 Fold change: 1.05
  Slc38a9 Fold change: 1.17
  Slc38a10 Fold change: −1.04
  Slc43a1 Fold change: −2.78
  Tat Fold change: −4.35
  Tpi1 Fold change: −1.14
  pcx Fold change: −1.15
Liver of mice, 15 mg/kg α-GCGR
  Aass expression RPKM: 60.38 RPKM
  Abat expression RPKM: 43.18 RPKM
  Acmsd expression RPKM: 3.90 RPKM
  Agxt expression RPKM: 111.91 RPKM
  Aldh4a1 expression RPKM: 64.72 RPKM
  Aldoa expression RPKM: 16.24 RPKM
  Arg1 expression RPKM: 969.96 RPKM
  Asl expression RPKM: 151.51 RPKM
  Ass1 expression RPKM: 190.00 RPKM
  Bhmt expression RPKM: 98.73 RPKM
  Cbs expression RPKM: 126.52 RPKM
  Cps1 expression RPKM: 419.74 RPKM
  Cth expression RPKM: 139.77 RPKM
  Ddc expression RPKM: 15.03 RPKM
  Eno1 expression RPKM: 14.96 RPKM
  Fbp1 expression RPKM: 365.35 RPKM
  G6pc expression RPKM: 40.65 RPKM
  Gcat expression RPKM: 18.88 RPKM
  Gldc expression RPKM: 33.42 RPKM
  Gnmt expression RPKM: 449.55 RPKM
  Got1 expression RPKM: 9.98 RPKM
  Gpi1 expression RPKM: 16.58 RPKM
  Gpt expression RPKM: 103.74 RPKM
  Hgd expression RPKM: 109.59 RPKM
  Hpd expression RPKM: 874.17 RPKM
  Ivd expression RPKM: 51.86 RPKM
  Lap3 expression RPKM: 108.58 RPKM
  Mat1a expression RPKM: 525.98 RPKM
  Mpst expression RPKM: 17.32 RPKM
  Nags expression RPKM: 13.94 RPKM
  Oat expression RPKM: 66.76 RPKM
  Otc expression RPKM: 292.99 RPKM
  Pah expression RPKM: 232.16 RPKM
  Pck1 expression RPKM: 490.87 RPKM
  Pgam1 expression RPKM: 2.12 RPKM
  Pgk1 expression RPKM: 1.91 RPKM
  Prodh expression RPKM: 89.26 RPKM
  Sardh expression RPKM: 122.51 RPKM
  Sds expression RPKM: 39.47 RPKM
  Slc1a2 expression RPKM: 14.89 RPKM
  Slc3a1 expression RPKM: 9.78 RPKM
  Slc3a2 expression RPKM: 14.56 RPKM
  Slc6a9 expression RPKM: 10.29 RPKM
  Slc7a2 expression RPKM: 67.24 RPKM
  Slc15a3 expression RPKM: 1.15 RPKM
  Slc15a4 expression RPKM: 5.47 RPKM
  Slc16a10 expression RPKM: 14.93 RPKM
  Slc17a8 expression RPKM: 4.18 RPKM
  Slc25a12 expression RPKM: 4.68 RPKM
  Slc25a13 expression RPKM: 76.40 RPKM
  Slc25a15 expression RPKM: 50.85 RPKM
  Slc25a22 expression RPKM: 14.40 RPKM
  Slc36a1 expression RPKM: 3.90 RPKM
  Slc36a4 expression RPKM: 1.34 RPKM
  Slc38a2 expression RPKM: 17.59 RPKM
  Slc38a3 expression RPKM: 285.49 RPKM
  Slc38a4 expression RPKM: 261.42 RPKM
  Slc38a6 expression RPKM: 1.72 RPKM
  Slc38a7 expression RPKM: 4.41 RPKM
  Slc38a9 expression RPKM: 1.48 RPKM
  Slc38a10 expression RPKM: 19.58 RPKM
  Slc43a1 expression RPKM: 0.83 RPKM
  Tat expression RPKM: 197.67 RPKM
  Tpi1 expression RPKM: 46.09 RPKM
  pcx expression RPKM: 68.44 RPKM
Livers of mice, 15 mg/kg
  expression of genes involved in amino acid metabolism, urea cycle and gluconeogenesis: reduced expression
  expression of mitochondrial amino acid transporters Slc25a15 and Slc25a22: significantly reduced
  reduction of expression of plasma membrane amino acid transporters Slc38a3, Slc38a4, Slc7a2 and Slc3a1: 30-50%
